Columns and labels:
[1] = target: BChE/hSA fusion protein (recombinant human butyrylcholinesterase fused to human serum albumin) in the milk of transgenic mice (human) (UniProt P06276); assay: SEC + native gel or EMSA
[2] = target: BChE/hSA fusion protein (recombinant human butyrylcholinesterase fused to human serum albumin) in the milk of transgenic goats (human) (UniProt P06276); assay: SEC + native gel or EMSA
[3] = target: the molecule itself; assay: SEC

“BChE/hSA fusion protein (recombinant human butyrylcholinesterase fused to human serum albumin) in the milk of transgenic mice (from UniProt P06276 29-602; P02768 25-609) (enzyme)” showed a stoichiometry N [1] of 2.

“BChE/hSA fusion protein (recombinant human butyrylcholinesterase fused to human serum albumin) in the milk of transgenic goats (from UniProt P06276 29-602; P02768 25-609) (enzyme)” was tested, and the stoichiometry N [2] was 2.

B1: recombinant human butyrylcholinesterase produced transgenically in goat milk, tetramer-enriched preparation (>70% tetramer) (enzyme, UniProt P06276 29-602, looked up)
chain: EDDIIIATKNGKVRGMNLTVFGGTVTAFLGIPYAQPPLGRLRFKKPQSLTKWSDIWNATKYANSCCQNIDQSFPGFHGSEMWNPNTDLSEDCLYLNVWIPAPKPKNATVLIWIYGGGFQTGTSSLHVYDGKFLARVERVIVVSMNYRVGALGFLALPGNPEAPGNMGLFDQQLALQWVQKNIAAFGGNPKSVTLFGESAGAASVSLHLLSPGSHSLFTRAILQSGSFNAPWAVTSLYEARNRTLNLAKLTGCSRENETEIIKCLRNKDPQEILLNEAFVVPYGTPLSVNFGPTVDGDFLTDMPDILLELGQFKKTQILVGVNKDEGTAFLVYGAPGFSKDNNSIITRKEFQEGLKIFFPGVSEFGKESILFHYTDWVDDQRPENYREALGDVVGDYNFICPALEFTKKFSEWGNNAFFYYFEHRSSKLPWPEWMGVMHGYEIEFVFGLPLERRDNYTKAEEILSRSIVKRWANFAKYGNPNETQNNSTSWPVFKSTEQKYLTLNTESTRIMTKLRAQQCRFWTSFFPKVLEMTGNIDEAEWEWKAGFHRWNNYMMDWKNQFNDYTSKKESCVGL
notes: also called tetramer-enriched BChE; BChE produced transgenically (>70% tetramer)
In the case of B1, the “stoichiometry N” value [3] is reported as 4.

Reference: PMC2415180 (BMC Biotechnology, 2008)
